{"source": "paper PMC3310290", "target": "fibrin (Homo sapiens) (UniProt P02671)", "experiment": "ELISA", "note": "pIC50: −log10 of the molar value."}
{"substance": "fibronectin, P02751", "values": [{"measurement": "pIC50", "result": 8.31}]}
